Measured values reported in patent US11857601B2, “Pharmaceutical composition for cancer treatment comprising fusion protein including IL-2 protein and CD80 protein and anticancer drug” (GI INNOVATION, INC., priority 2020, dated 2024).

B1: mGI102-M61: mCD80-Fc-IL-2 variant (3M) (R38A, F42A, E61R); SEQ ID NO: 34 (protein)
chain: MDAMLRGLCCVLLLCGAVFVSPSHAVDEQLSKSVKDKVLLPCRYNSPHEDESEDRIYWQKHDKVVLSVIAGKLKVWPEYKNRTLYDNTTYSLIILGLVLSDRGTYSCVVQKKERGTYEVKHLALVKLSIKADFSTPNITESGNPSADTKRITCFASGGFPKPRFSWLENGRELPGINTTISQDPESELYTISSQLDFNTTRNHTIKCLIKYGDAHVSEDFTWEKPPEDPPDSGSGGGGSGGGGSGGGGSAESKYGPPCPPCPAPEAAGGPSVFLFPPKPKDQLMISRTPEVTCVVVDVSQEDPEVQFNWYVDGVEVHNAKTKPREEQFNSTYRVVSVLTVLHQDWLNGKEYKCKVSNKGLPSSIEKTISKAKGQPREPQVYTLPPSQEEMTKNQVSLTCLVKGFYPSDIAVEWESNGQPENNYKTTPPVLDSDGSFFLYSRLTVDKSRWQEGNVFSCSVLHEALHNHYTQKSLSLSLGGGGGSAPTSSSTKKTQLQLEHLLLDLQMILNGINNYKNPKLTAMLTAKFYMPKKATELKHLQCLERELKPLEEVLNLAQSKNFHLRPRDLISNINVIVLELKGSETTFMCEYADETATIVEFLNRWITFCQSIISTLT
modifications: Sequence of fusion protein (mGI102-M61)
B2: GI101C1: comparative fusion protein: human CD80 fragment, Ig hinge, Fc domain; SEQ ID NO: 17 (protein)
chain: VIHVTKEVKEVATLSCGHNVSVEELAQTRIYWQKEKKMVLTMMSGDMNIWPEYKNRTIFDITNNLSIVILALRPSDEGTYECVVLKYEKDAFKREHLAEVTLSVKADFPTPSISDFEIPTSNIRRIICSTSGGFPEPHLSWLENGEELNAINTTVSQDPETELYAVSSKLDFNMTTNHSFMCLIKYGHLRVNQTFNWNTTKQEHFPDNGSGGGGSGGGGSGGGGSAESKYGPPCPPCPAPEAAGGPSVFLFPPKPKDQLMISRTPEVTCVVVDVSQEDPEVQFNWYVDGVEVHNAKTKPREEQFNSTYRVVSVLTVLHQDWLNGKEYKCKVSNKGLPSSIEKTISKAKGQPREPQVYTLPPSQEEMTKNQVSLTCLVKGFYPSDIAVEWESNGQPENNYKTTPPVLDSDGSFFLYSRLTVDKSRWQEGNVFSCSVLHEALHNHYTQKSLSLSLG
modifications: Sequence of fusion protein (GI101C1)
B3: GI102-M61: hCD80-Fc-IL-2 variant (3M) (R38A, F42A, E61R); SEQ ID NO: 28 (protein)
chain: VIHVTKEVKEVATLSCGHNVSVEELAQTRIYWQKEKKMVLTMMSGDMNIWPEYKNRTIFDITNNLSIVILALRPSDEGTYECVVLKYEKDAFKREHLAEVTLSVKADFPTPSISDFEIPTSNIRRIICSTSGGFPEPHLSWLENGEELNAINTTVSQDPETELYAVSSKLDFNMTTNHSFMCLIKYGHLRVNQTFNWNTTKQEHFPDNGSGGGGSGGGGSGGGGSAESKYGPPCPPCPAPEAAGGPSVFLFPPKPKDQLMISRTPEVTCVVVDVSQEDPEVQFNWYVDGVEVHNAKTKPREEQFNSTYRVVSVLTVLHQDWLNGKEYKCKVSNKGLPSSIEKTISKAKGQPREPQVYTLPPSQEEMTKNQVSLTCLVKGFYPSDIAVEWESNGQPENNYKTTPPVLDSDGSFFLYSRLTVDKSRWQEGNVFSCSVLHEALHNHYTQKSLSLSLGGGGGSAPTSSSTKKTQLQLEHLLLDLQMILNGINNYKNPKLTAMLTAKFYMPKKATELKHLQCLERELKPLEEVLNLAQSKNFHLRPRDLISNINVIVLELKGSETTFMCEYADETATIVEFLNRWITFCQSIISTLT
modifications: Sequence of fusion protein (GI102-M61)

Legend:
CT26 cancer cell line = assay: mGI102-M61 in mice transplanted with CT26 (Exp. Ex. 18); type: in vivo, BALB/c mice; details: 12 mg/kg i.v.
Experimental: The tumor size was measured daily.

[1] = system: effector CD8+ T cells, NK cells, Treg cells; assay: Effect on mouse immune cells in spleen; type: in vivo, C57BL/6 mice; details: vs PBS
Experimental: On days 1, 3, 5, 7, and 14 after the injection, the spleen tissues were removed from the mice of each group. Thereafter, for the spleen tissue, the numbers of effector CD8+ T cells, NK cells, and Treg cells were calculated with FACS analysis using respective antibodies, and proportions of effector CD8+ T cells and NK cells with respect to Treg cells were respectively calculated. The information on the antibodies used in each cell analysis is as follows:
Effector CD8+ T cell: PB anti-mouse CD3ε antibody (Biolegend, #155612; KT3.1.1), FITC anti-mouse CD8α antibody (BD, #553031, 53-6.7), PE/Cy7 anti-mouse CD44 antibody (Biolegend, #103030; IM7), APC anti-mouse CD122 antibody (Biolegend, #123214; TM-β1)
NK cell: PB anti-mouse CD3ε antibody (Biolegend, #155612; KT3.1.1), PE anti-mouse NK-1.1 (Biolegend, #108708; PK136)
Treg cell: FITC anti-mouse CD3 antibody (Biolegend, #100204; 17A2), PB anti-mouse CD4 antibody (Biolegend, #100531; RM4-5), PE anti-mouse CD25 antibody (Biolegend, #102008; PC61), APC anti-mouse Foxp3 antibody (Invitrogen, #FJK-16s, 17-5773-82).

[2] = system: CD8+ T cells and CD4+/FoxP3+ Treg cells; assay: Proliferation of CD8+ T cells and Treg cells in PBMCs (Exp. Ex. 10); type: cell-based, human; details: for proliferation of CD4+/FoxP3+ Treg cells: compared with no stimulus and anti-CD3 antibody alone
Experimental: Human PBMCs were purchased from Allcells (Lot #3014928, USA). […] CellTrace CFSE dye was used, which was reacted with the human PBMCs under a light-blocking condition at […] for 20 minutes. The cells were labeled with CFSE by being reacted with 1 μM CellTrace CFSE dye at 37° C. for 20 minutes. CFSE not bound to the cells was removed by being reacted for 5 minutes with a culture medium having a 5-fold volume of the staining reaction solution and then by being centrifuged at 1,300 rpm for 5 minutes. The CFSE-labeled PBMCs were resuspended in the culture medium (RPMI1640 medium containing 10% fetal bovine serum, 10 mM HEPES, 100 U/ml penicillin/streptomycin, 1 mM sodium pyruvate, 55 μM 2-mercaptoethanol, 1 mM non-essential amino acid, and 2 mM L-glutamine), and then added to a 96-well microplate at 1×10^5 cells per well.
The incubated cells were examined for their degree of proliferation by measuring, with FACS analysis using anti-human CD4-PE antibody (BioLegend, USA), anti-human CD8-PE/Cy7 antibody (BioLegend, USA), and anti-human FoxP3-APC antibody (BioLegend, USA), a proportion of CD8+ T cells that had not been labeled with CFSE.

Molecule | survival rate (CT26 cancer cell line; vs negative control) | Tumor growth inhibition (CT26 cancer cell line; vs negative control (hIgG4)) | proportions of activated CD8+ T cells/Treg cells and NK cells/Treg cells ([1]; 3rd to 7th days after administration) | numbers of CD8+ T cells and NK cells ([1]; 3rd to 14th days after i.v. administration (3, 6 or 12 mg/kg)) | proliferation of CD4+/FoxP3+ Treg cells [2] | proportion of CD8+ T cells ([2]; anti-CD3ε 1 μg/ml, 7 days, compared with no stimulus, anti-CD3 antibody alone and GI101C1)
B1 | significant improvement | significant tumor growth inhibition | significant increase | significant increase | – | –
B2 | – | – | – | – | did not exhibit a significant increase | –
B3 | – | – | – | – | did not exhibit a significant increase | significant increase
